# B1: KR2 rhodopsin (NaR gene from Krokinobacter eikastus) (natural protein)
# chain: MTQELGNANFENFIGATEGFSEIAYQFTSHILTLGYAVMLAGLLYFILTIKNVDKKFQMSNILSAVVMVSAFLLLYAQAQNWTSSFTFNEEVGRYFLDPSGDLFNNGYRYLNWLIDVPMLLFQILFVVSLTTSKFSSVRNQFWFSGAMMIITGYIGQFYEVSNLTAFLVWGAISSAFFFHILWVMKKVINEGKEGISPAGQKILSNIWILFLISWTLYPGAYLMPYLTGVDGFLYSEDGVMARQLVYTIADVSSKVIYGVLLGNLAITLSKNKELVEANS
# notes: KR2 rhodopsin, NaR gene from Krokinobacter eikastus, codon-optimised for E. coli; also called KR2 bacterial rhodopsin; source: E. coli C41, pET15b, purified in DDM (Ni-NTA, Superdex 200 Increase)
# Molecular target: the molecule itself
# Experiment: cryo-EM structure; single-particle analysis of KR2 rhodopsin in 50 mM Tris-HCl pH 8.0, 0.1 M NaCl, 0.03% DDM; grids made with EasyGrid at 4 °C; non-symmetrised ab initio model, then refinement with imposed C5 symmetry
protein,measurement,value
B1,stoichiometry N,5
